This passage reports percent of the protein in the 19.5 S species, molar ratio to tubulin 0.43:1 and percent of the protein in the 28.5 S species, molar ratio to tubulin 0.43:1 results from PMC2148115.

The assay addresses Tubulin (αβ-tubulin heterodimer) from pig brain (pig) (UniProt P02550). Briefly: AUC.

For “MAP2C (from UniProt P15146-3 1-467) (natural protein)”, the percent of the protein in the 19.5 S species, molar ratio to tubulin 0.43:1 was determined as 21% and the percent of the protein in the 28.5 S species, molar ratio to tubulin 0.43:1 amounted to 26%.
